According to patent publication US20060252697A1 (ANTYRA, published 2006):
Where no end group is shown, it is not given here.

How the values were obtained:
[1] = biological target: rat growth hormone binding protein (rGHBP) (rat) (UniProt P16310); assay: TRFD, ED50 of specific binding of biotinylated ligand to rGHBP-coated wells
[2] = biological target: rat growth hormone binding protein (rGHBP) (rat) (UniProt P16310); assay: TRFD competition on rGHBP-coated wells, vs. bP#447 (SEQ ID NO: 11)
[3] = biological target: rat growth hormone binding protein (rGHBP) (rat) (UniProt P16310); assay: phage ELISA competition on rGHBP (100 ng/well); blocked: H5 phage
[4] = biological target: rat growth hormone binding protein (rGHBP) (rat) (UniProt P16310); assay: TRFD competition on rGHBP-coated wells, vs. bP#418 (SEQ ID NO: 12)
[5] = biological target: rat growth hormone binding protein (rGHBP) (rat) (UniProt P16310); assay: TRFD competition on rGHBP-coated wells, vs. bGH
[6] = biological target: humanized rat growth hormone binding protein (‘hu’GHBP) (rat (humanized by one substitution)) (UniProt P16310); assay: phage ELISA on ‘hu’GHBP-coated wells, competitor human GH (+hGH, 1 µM)
[7] = biological target: humanized rat growth hormone binding protein (‘hu’GHBP) (rat (humanized by one substitution)) (UniProt P16310); assay: phage ELISA on ‘hu’GHBP-coated wells, +BSA (1 µM)
[8] = biological target: humanized rat growth hormone binding protein (‘hu’GHBP) (rat (humanized by one substitution)) (UniProt P16310); assay: phage ELISA on ‘hu’GHBP-coated wells, no competitor
[9] = biological target: T1, rat growth hormone binding protein (rGHBP) (rat, UniProt P16310 19-265); assay: phage ELISA competition on rGHBP (100 ng/well); synthetic H5 peptide against H5 phage
T1 construct: extracellular domain; also called rat GHBP; soluble rGHBP
T1 sequence (looked up): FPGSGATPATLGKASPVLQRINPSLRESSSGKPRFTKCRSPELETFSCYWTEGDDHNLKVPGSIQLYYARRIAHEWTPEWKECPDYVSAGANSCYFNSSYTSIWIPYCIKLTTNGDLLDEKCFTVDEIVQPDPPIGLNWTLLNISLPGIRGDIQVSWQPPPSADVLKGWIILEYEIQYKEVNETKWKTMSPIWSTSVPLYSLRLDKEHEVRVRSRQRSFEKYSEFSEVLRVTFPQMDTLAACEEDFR
Protocol: Wells were coated with rGHBP (100 ng/well) and blocked as described. […] Phage was detected with HRP-anti M13 phage antibody and reported at OD₄₀₅ as described.

[10] = biological target: T1, rat growth hormone binding protein …; assay: BIAcore, bPeptide binding to rGHBP, appKD 2
[11] = biological target: T1, rat growth hormone binding protein …; assay: BIAcore, bPeptide binding to rGHBP, appKD 1
[12] = biological target: T1, rat growth hormone binding protein …; assay: phage ELISA competition on rGHBP (100 ng/well); synthetic peptide against H5 phage
Protocol: Wells were coated with rGHBP (100 ng/well) and blocked as described. […] The peptides included two lysine residues added to the C-terminus of the sequence shown. Phage binding was detected with HRP-anti M13 phage antibody. Number and sequence of competing peptides are detailed on the right of figure. Control binding=binding in absence of peptide.

[13] = biological target: T1, rat growth hormone binding protein …; assay: phage ELISA, rGHBP 100 ng/well
Protocol: Alanine replacement for single or multiple amino acids is represented by “a” and for cysteine by “X”. FIG. 4A illustrates the binding of wild-type (WT) and mutant phage on wells coated with milk (2%), FcMAb (100 ng/well), rGHBP (100 ng/well), or MAb specific for the E-tag epitope (100 ng/well). FIG. 4B illustrates the ratio of mutant phage binding to rGHBP versus anti-E-tag MAb coated wells.
For this analysis, phage were input at 10¹⁰/well. Wild type (WT) and mutant phage were tested on wells coated with milk (2%), FcMAb (100 ng/well), rGHBP (100 ng/well), or MAb specific for the E-tag epitope (100 ng/well) (FIG. 4A). Detection with HRP-anti M13 phage antibody was done as described. In FIG. 4, alanine replacement for single or multiple amino acid is represented by “a” and for cysteine by “X”.

[14] = biological target: T1, rat growth hormone binding protein …; assay: TRFD
[15] = biological target: T1, rat growth hormone binding protein …; assay: TRFD, ED50 of specific binding of biotinylated ligand to rGHBP-coated wells
Protocol: Wells were coated with rGHBP (100 ng/well) overnight as described. ED₅₀ and IC₅₀ were calculated from analysis of specific bLigand binding to rGHBP. Competitors were added 1 hr prior to addition of bLigand as described.
(§1) rGHBP (50-200 μg/ml in 50 mM NaHCO₃) was coated onto low-fluorescence MaxiSorp (Nunc) plates (100 μl/well) overnight at 4° C. The plates were blocked with PBS containing 2% non-fat milk and 0.05% BSA for 2 hr at room temperature, followed by three PBS washes. […] Ten microliters of the 10× concentrated material was added to the plates and incubated at room temperature for 1 hr to overnight.
(§2) The plates were then washed five times with Tris-buffered saline (pH 7.5) containing 0.1% Tween-20 (TTBS). To each well, 100 μl of europium-labeled streptavidin in DELFIA assay buffer (100 mM Tris-HCl, pH 7.8; 150 mM NaCl; 0.5% BSA; 0.05% bovine Ig; 0.05% NaN3; 0.01% Tween-20) was added and incubated for 1.5 hr at room temperature. The plates were then washed five times with TTBS and tapped dry. Subsequently, 100 μl of DELFIA enhancement solution (100 mM acetone-potassium hydrogen phthalate, pH 3.2; 15 mM 2-naphtyltrifluoroacetate; 50 mM tri(n-octyl)-phosphine oxide; 0.1% Triton X-100) was added to each well, and the plates were shaken for 10 min at room temperature.

[16] = biological target: T1, rat growth hormone binding protein …; assay: TRFD, ED50 of specific binding to rGHBP-coated wells
Protocol: as §1, §2

Work on “biotinylated growth hormone (bGH) (ligand)” yielded an EC50 [1] of 20 nM.

In the case of “growth hormone (GH), species not stated (ligand)”, the IC50 [2] is reported as 0.4 nM, the IC50 (read off the curve) [3] is reported as 5 nM and the IC50 [4] is reported as 2 nM. The IC50 [5] was 5 nM.

Work on DYKDALLHRSRCVRWGKWVCCLPPVGVGGAQANQGMSVQRFRHC [clone HH peptide] yielded an ELISA signal (unit not given) [6] of 0.35, an ELISA signal (unit not given) [7] of 0.37 and an ELISA signal (unit not given) [8] of 0.37.

B1: peptide #445 (peptide)
peptide: DYKDLCQRLGVGWPGWLAGWCA
modifications: cysteine pairing not given here; also: biotinylated in bP form, position not given here
Molecule B1 has an ELISA signal (unit not given) [6] of 0.12, an ELISA signal (unit not given) [7] of 0.11 and an ELISA signal (unit not given) [8] of 0.14.

B2: GHBP-H5 peptide (H5WT) (peptide)
peptide: DYKDLCQSLGVTYPGWLAGWCA
modifications: cysteine pairing not given here; also: biotinylated in some formats, position not given here
notes: also called H5 phage
For B2, the “IC50 (read off the curve)” value [9] was about 1000 nM, the Kd [10] was 3500 nM and the Kd [11] was 1300 nM. For the same molecule, the “IC50 (read off the curve)” value [12] was about 1000 nM.

DYKDLAQSLGVTYPGWLAGWCA (H5 phage mutant) [X---C (first C crossed out)]: no binding (tested: 10^10 phage/well) [13].

DYKDLAQSLGVTYPGWLAGWAA (H5 phage mutant) [X---X (both C crossed out)]: no binding (tested: 10^10 phage/well) [13].

B3: peptide #418 (peptide)
peptide: DYKDLCQSWQVTWPGWLAGWCA
modifications: cysteine pairing not given here; also: biotinylated in bP form, position not given here
notes: H5 mutant from the secondary library (Y9 to W, L5 to W, G6 to E), synthetic
For B3, the Kd [10] was 670 nM, the Kd [11] was 150 nM and the “fold better binding than H5WT or bP#445” value [14] was 10 fold. The EC50 [15] was 800 nM and the “IC50 (read off the curve)” value [12] was about 100 nM.

For DYKDLCQRLGVTWPGWLAGWCA (cysteine pairing not given here; also: biotinylated, position not given here, H5 mutant, synthetic) [peptide #443], the Kd [10] was over 10000 nM, the Kd [11] was 600 nM and the “IC50 (read off the curve)” value [12] was about 400 nM.

B4: peptide #447 (peptide)
peptide: DYKDLCQRLGVGWPGWLSGWCA
modifications: cysteine pairing not given here; also: biotinylated in bP form, position not given here
notes: H5 mutant from the secondary library, synthetic
Molecule B4 has an EC50 [16] of 700 nM, a Kd [10] of 2900 nM and a Kd [11] of 160 nM. For the same molecule, the “fold better binding than H5WT or bP#445” value [14] was 10 fold, the EC50 [15] was 600 nM and the “IC50 (read off the curve)” value [12] was about 90 nM.
